The assay has as its target gelatin layer (gelatin coated glass coverslips). Briefly: not stated; unpublished data (Collier and Goldberg); affinity for gelatin.

The source of these data is paper PMC3164694.

Take MMP-9 pro-enzyme homo-dimer (complex): the fold higher affinity of the dimer for gelatin worked out at 10 fold.
